Target: polysialate O-acetyltransferase NeuO, protein variant with four N-terminal RLKTQDS heptads (Escherichia coli K1 (prophage CUS-3))
Test: crystal structure; apo-enzyme, space group P2_1, three monomers in the asymmetric unit, 1.7 Å; sitting drop at 20°C, 0.1 M Tris pH 7.2, 0.45 M glycine, 0.2 M NH4NO3, 7% PEG4000

polysialate O-acetyltransferase NeuO, protein variant with four N-terminal RLKTQDS heptads (enzyme)
stoichiometry N: 3

Source: article PMC3046976
